PMC7470980, “Mechanism of translation inhibition by type II GNAT toxin AtaT2” (Nucleic Acids Research, 2020)

Experiments:
SEC = molecular target: the molecule itself; assay: SEC
[1] = molecular target: the molecule itself; assay: SEC; […]; 10 mM Tris-HCl pH 8.0, 150 mM NaCl; 0.2 ml/min; […]

B1: AtaT2 toxin (enzyme)
chain: MGITAPTPLTSEHNLADFCCSDHGMNEWLKKKALKNHSSGLSRVYVICIANTRQVIGYYCLSTGSIQRNLAPGAMRRNAPESLPVVVLGRLAIDQAWAGKGLGVALLKDAVYRTMSIAQQVGVRALIVHALDDSVRNFYLKYAFVPSPFQSLTLLYPITLE
- stoichiometry N (SEC): 2

B2: AtaR2 antitoxin (natural protein)
chain: MKPESKEAPINIRAKASQRDLIDMAANLVAKSRTDFMLDAACREAQDILLDQRLFILDDEQYDAFLAALDAPITAERQAKINALMNRKSPWE
- stoichiometry N [1]: 4
